Assay results: patent WO2012007688A1 (dated 2012)

B1: Antibody 4 (human monoclonal antibody against tetanus toxin) (antibody, V domains shown)
VH: EVQLVESGGGLVQPGGSLRLSCAASGFSFSRHWMSWVRQAPGKGLEWVANIHYDLSEKYFVDSVRGRFTISRDNAKNSLYLEMNSLRADDTAVYYCARGGRSTVWPRGWFDLWGQGTLVTVSS
VL: EIVLTQSPGTLSLSPGERATLSCRASQSVSSSYLAWYQQKPGQAPRLLIYGASGRATGIPDRFSGSGSGTHFTLTISRLEPEDFAVYFCQQFADSRTFGQGTKLEIKR
B2: Antibody 5 (human monoclonal antibody against tetanus toxin) (antibody, V domains shown)
VH: QLVQSGAEVKKPGSSVKVSCKASGGTLSGFAINWVRQAPGQGLEWMGGIIPDTGSPTYVQRFQGRVTMTADKSTSTAYMELNSLRSDDTAVYYCARSVMITFGGVLTPPNFDFWGQGTLVTVSS
VL: DIQMTQSPSSLSASVGDRVTISCRASQAISIYLNWYQQRPGKAPRLLIYAASNLQSGVPSRFSASGSGTDFTLTISSLQPEDFATYYCQQSKENPPTFGQGTKLEIKR

Molecular target: T1, fragment C of tetanus toxoid (Sigma, T3694) (Clostridium tetani, UniProt P04958 865-1315)
T1 sequence: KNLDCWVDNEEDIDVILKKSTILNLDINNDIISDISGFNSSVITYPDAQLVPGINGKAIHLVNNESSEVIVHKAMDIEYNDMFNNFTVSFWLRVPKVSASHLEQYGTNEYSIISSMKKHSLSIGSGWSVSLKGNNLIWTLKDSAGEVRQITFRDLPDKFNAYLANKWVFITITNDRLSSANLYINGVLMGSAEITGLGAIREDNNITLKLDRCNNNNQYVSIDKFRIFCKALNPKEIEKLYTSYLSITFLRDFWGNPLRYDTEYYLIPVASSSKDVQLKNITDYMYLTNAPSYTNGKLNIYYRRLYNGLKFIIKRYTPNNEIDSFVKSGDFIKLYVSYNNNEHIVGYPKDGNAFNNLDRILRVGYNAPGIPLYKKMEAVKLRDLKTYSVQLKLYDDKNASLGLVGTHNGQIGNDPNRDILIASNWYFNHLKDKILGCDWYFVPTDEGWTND

Row | Binder | Kd [nM]
1 | B1 | 34
2 | B2 | 0.16
